Source: US20250262210A1 (TRUSTEES OF COLUMBIA UNIVERSITY IN THE CITY OF NEW YORK, published 2025)
Numbering of substitutions follows the chain as printed.

B1: MCMBP (other, human, UniProt Q9BTE3 1-642, looked up)
chain: MPCGEDWLSHPLGIVQGFFAQNGVNPDWEKKVIEYFKEKLKENNAPKWVPSLNEVPLHYLKPNSFVKFRCMIQDMFDPEFYMGVYETVNQNTKAHVLHFGKYRDVAECGPQQELDLNSPRNTTLERQTFYCVPVPGESTWVKEAYVNANQARVSPSTSYTPSRHKRSYEDDDDMDLQPNKQKDQHAGARQAGSVGGLQWCGEPKRLETEASTGQQLNSLNLSSPFDLNFPLPGEKGPACLVKVYEDWDCFKVNDILELYGILSVDPVLSILNNDERDASALLDPMECTDTAEEQRVHSPPASLVPRIHVILAQKLQHINPLLPACLNKEESKTCKFVSSFMSELSPVRAELLGFLTHALLGDSLAAEYLILHLISTVYTRRDVLPLGKFTVNLSGCPRNSTFTEHLYRIIQHLVPASFRLQMTIENMNHLKFIPHKDYTANRLVSGLLQLPSNTSLVIDETLLEQGQLDTPGVHNVTALSNLITWQKVDYDFSYHQMEFPCNINVFITSEGRSLLPADCQIHLQPQLIPPNMEEYMNSLLSAVLPSVLNKFRIYLTLLRFLEYSISDEITKAVEDDFVEMRKNDPQSITADDLHQLLVVARCLSLSAGQTTLSRERWLRAKQLESLRRTRLQQQKCVNGNEL
B2: NDC80 (other, human, UniProt O14777 1-642, looked up)
chain: MKRSSVSSGGAGRLSMQELRSQDVNKQGLYTPQTKEKPTFGKLSINKPTSERKVSLFGKRTSGHGSRNSQLGIFSSSEKIKDPRPLNDKAFIQQCIRQLCEFLTENGYAHNVSMKSLQAPSVKDFLKIFTFLYGFLCPSYELPDTKFEEEVPRIFKDLGYPFALSKSSMYTVGAPHTWPHIVAALVWLIDCIKIHTAMKESSPLFDDGQPWGEETEDGIMHNKLFLDYTIKCYESFMSGADSFDEMNAELQSKLKDLFNVDAFKLESLEAKNRALNEQIARLEQEREKEPNRLESLRKLKASLQGDVQKYQAYMSNLESHSAILDQKLNGLNEEIARVELECETIKQENTRLQNIIDNQKYSVADIERINHERNELQQTINKLTKDLEAEQQKLWNEELKYARGKEAIETQLAEYHKLARKLKLIPKGAENSKGYDFEIKFNPEAGANCLVKYRAQVYVPLKELLNETEEEINKALNKKMGLEDTLEQLNAMITESKRSVRTLKEEVQKLDDLYQQKIKEAEEEDEKCASELESLEKHKHLLESTVNQGLSEAMNELDAVQREYQLVVQTTTEERRKVGNNLQRLLEMVATHVGSVEKHLEEQIAKVDREYEECMSEDLSENIKEIRDKYEKKATLIKSSEE
B3: MELK (other, human, UniProt Q14680 1-651, looked up)
chain: MKDYDELLKYYELHETIGTGGFAKVKLACHILTGEMVAIKIMDKNTLGSDLPRIKTEIEALKNLRHQHICQLYHVLETANKIFMVLEYCPGGELFDYIISQDRLSEEETRVVFRQIVSAVAYVHSQGYAHRDLKPENLLFDEYHKLKLIDFGLCAKPKGNKDYHLQTCCGSLAYAAPELIQGKSYLGSEADVWSMGILLYVLMCGFLPFDDDNVMALYKKIMRGKYDVPKWLSPSSILLLQQMLQVDPKKRISMKNLLNHPWIMQDYNYPVEWQSKNPFIHLDDDCVTELSVHHRNNRQTMEDLISLWQYDHLTATYLLLLAKKARGKPVRLRLSSFSCGQASATPFTDIKSNNWSLEDVTASDKNYVAGLIDYDWCEDDLSTGAATPRTSQFTKYWTESNGVESKSLTPALCRTPANKLKNKENVYTPKSAVKNEEYFMFPEPKTPVNKNQHKREILTTPNRYTTPSKARNQCLKETPIKIPVNSTGTDKLMTGVISPERRCRSVELDLNQAHMEETPKRKGAKVFGSLERGLDKVITVLTRSKRKGSARDGPRRLKLHYNVTTTRLVNPDQLLNEIMSILPKKHVDFVQKGYTLKCQTQSDFGKVTMQFELEVCQLQKPDVVGIRRQRLKGDAWVYKRLVEDILSSCKV

biological target: T1, LZTR1 R810W-FLAG (human, UniProt Q8N653 1-840); assay: IP/MS, LZTR1 R810W-FLAG, U87
T1 construct: Stably expressed in U87 cells by lentivirus; also called LZTR1-FLAG-R810W; LZTR1 RW; not shown: FLAG tag
T1 sequence (looked up): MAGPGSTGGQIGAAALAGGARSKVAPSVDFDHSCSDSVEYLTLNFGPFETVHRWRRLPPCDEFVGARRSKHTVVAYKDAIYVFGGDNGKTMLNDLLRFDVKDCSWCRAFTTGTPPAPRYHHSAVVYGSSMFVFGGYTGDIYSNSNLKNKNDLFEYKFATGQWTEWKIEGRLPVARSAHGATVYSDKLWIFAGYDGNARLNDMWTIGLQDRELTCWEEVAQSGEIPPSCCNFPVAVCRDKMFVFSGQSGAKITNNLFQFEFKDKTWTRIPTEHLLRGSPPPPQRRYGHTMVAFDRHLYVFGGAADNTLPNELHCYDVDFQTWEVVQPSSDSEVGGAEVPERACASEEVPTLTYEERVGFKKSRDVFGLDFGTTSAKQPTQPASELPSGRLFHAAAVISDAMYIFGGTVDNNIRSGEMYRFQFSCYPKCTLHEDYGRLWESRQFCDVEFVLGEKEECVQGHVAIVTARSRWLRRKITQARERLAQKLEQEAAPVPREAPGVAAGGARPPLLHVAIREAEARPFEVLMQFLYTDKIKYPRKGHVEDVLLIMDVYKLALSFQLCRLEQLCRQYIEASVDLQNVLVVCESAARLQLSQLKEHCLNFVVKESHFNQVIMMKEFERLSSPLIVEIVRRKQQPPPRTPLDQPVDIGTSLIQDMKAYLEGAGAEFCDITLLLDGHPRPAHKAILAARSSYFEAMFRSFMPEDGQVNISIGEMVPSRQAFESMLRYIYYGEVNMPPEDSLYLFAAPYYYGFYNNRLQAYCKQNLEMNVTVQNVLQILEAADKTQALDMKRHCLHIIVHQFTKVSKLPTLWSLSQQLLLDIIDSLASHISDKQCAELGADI
Outline: (§1)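 Gel slices were reduced with 5 mM DTT, alkylated with 11 mM IAA and digested overnight at 37° C. with trypsin. Peptides were analysed on an Orbitrap Fusion Tribrid by LC-MS/MS.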

Binder | binding result
B1 | binds
B2 | binds
B3 | binds

biological target: T2, LZTR1-FLAG (human, UniProt Q8N653 1-840); assay: IP/MS, LZTR1 wild type-FLAG, U87
T2 construct: Expressed in HEK 293T, HeLa or U87 cells; used as cell lysate; also called LZTR1 wild type-FLAG; LZTR1 WT; not shown: FLAG tag at the C-terminus
T2 sequence (looked up): T1 sequence (looked up) with W810R
Outline: as §1

Binder | binding result
B1 | binds
B2 | binds
B3 | binds
